Experiment [1] addresses T1, ADAMTS-13 CUB domain fragment.
T1 chain: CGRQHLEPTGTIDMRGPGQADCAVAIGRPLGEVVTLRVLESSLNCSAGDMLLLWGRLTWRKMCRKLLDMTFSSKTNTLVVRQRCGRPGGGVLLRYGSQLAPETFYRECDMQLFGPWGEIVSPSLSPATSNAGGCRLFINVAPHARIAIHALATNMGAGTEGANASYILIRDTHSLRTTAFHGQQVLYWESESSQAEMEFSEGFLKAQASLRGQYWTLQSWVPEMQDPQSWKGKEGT
Description: SPR; CUB fragment immobilised on a CM5 chip through amine-coupling; N-terminal fragment perfused at 30 μl/min for 120 s, dissociation 300 s; KD from maximal RU as a function of concentration (0-1.0 μM), Prism 8.0. The conditions noted are these: both partners purified. A general note: Surface plasmon resonance follows binding to a sensor surface in real time, without labels.

In experiment [2] the target is T2, N-terminal ADAMTS-13 fragment MDTCS (aa1-685) (UniProt Q76LX8 30-685).
T2 construct: signal peptide in the construct; ADAMTS-13, N-terminal fragment MDTCS (metalloprotease, disintegrin-like domain, first TSP1 repeat, cysteine-rich and spacer domain), aa1-685; The signal peptide and propeptide are probably removed on secretion (surmise); also called ADAMTS-13 variant truncated after spacer domain; source: Drosophila (S2) cell line, purified
T2 sequence (looked up): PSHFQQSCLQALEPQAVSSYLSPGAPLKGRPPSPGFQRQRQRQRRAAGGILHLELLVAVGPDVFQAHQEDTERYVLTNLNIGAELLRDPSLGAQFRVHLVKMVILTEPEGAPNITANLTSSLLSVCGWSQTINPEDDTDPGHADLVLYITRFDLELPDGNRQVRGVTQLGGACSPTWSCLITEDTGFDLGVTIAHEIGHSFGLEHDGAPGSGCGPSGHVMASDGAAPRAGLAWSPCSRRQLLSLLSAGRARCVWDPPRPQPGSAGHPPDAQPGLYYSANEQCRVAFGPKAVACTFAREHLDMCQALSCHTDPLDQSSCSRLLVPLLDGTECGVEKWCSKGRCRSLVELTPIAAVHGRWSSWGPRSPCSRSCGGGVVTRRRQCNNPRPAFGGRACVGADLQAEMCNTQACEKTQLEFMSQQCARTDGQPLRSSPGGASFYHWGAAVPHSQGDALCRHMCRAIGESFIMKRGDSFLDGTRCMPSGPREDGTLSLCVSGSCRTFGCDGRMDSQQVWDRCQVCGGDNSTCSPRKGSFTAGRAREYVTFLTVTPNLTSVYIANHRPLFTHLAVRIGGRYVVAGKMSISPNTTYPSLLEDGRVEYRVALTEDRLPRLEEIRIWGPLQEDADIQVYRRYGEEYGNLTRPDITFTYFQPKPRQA
The experiment is described as above. The conditions noted are these: both partners purified.

B1: ADAMTS-13 construct consisting of a disintegrin, the first thrombospondin type 1 repeat, a cysteine-rich and a spacer domain (DTCS) (domain or fragment)
chain: RPQPGSAGHPPDAQPGLYYSANEQCRVAFGPKAVACTFAREHLDMCQALSCHTDPLDQSSCSRLLVPLLDGTECGVEKWCSKGRCRSLVELTPIAAVHGRWSSWGPRSPCSRSCGGGVVTRRRQCNNPRPAFGGRACVGADLQAEMCNTQACEKTQLEFMSQQCARTDGQPLRSSPGGASFYHWGAAVPHSQGDALCRHMCRAIGESFIMKRGDSFLDGTRCMPSGPREDGTLSLCVSGSCRTFGCDGRMDSQQVWDRCQVCGGDNSTCSPRKGSFTAGRAREYVTFLTVTPNLTSVYIANHRPLFTHLAVRIGGRYVVAGKMSISPNTTYPSLLEDGRVEYRVALTEDRLPRLEEIRIWGPLQEDADIQVYRRYGEEYGNLTRPDITFTYFQPKPRQA
modifications: disintegrin start by convention, end 685 from printed MDTCS limit; HEK-293 expressed (likely glycosylated) / CUB1+CUB2 taken from the conventional CUB1 start to the C-terminus; HEK-293 expressed …
In the case of B1, the equilibrium dissociation constant (Kd) (usually the constant that tells how readily two partners part at equilibrium) in experiment [1] came out at 460 nM.

B2: ADAMTS-13 CUB domain fragment (domain or fragment)
chain: T1 chain
modifications: CUB1+CUB2 taken from the conventional CUB1 start to the C-terminus; HEK-293 expressed (likely N-glycosylated); amine-coupled to CM5 chip
As for B2, binding in experiment [2] was put at a Kd of 330 nM.

The values above are taken from PMC9958085, “A novel mechanism underlying allosteric regulation of ADAMTS-13 revealed by hydrogen−deuterium exchange plus mass spectrometry” (Research and Practice in Thrombosis and Haemostasis, 2022).
